Results as given in patent US20100285016A1 (Genentech, published 2010).

T1: PRO34128-Fc fusion protein (human, UniProt Q6UXV0 19-351, limits assumed)
T1 construct: Used as conditioned medium; not shown: Fc portion
T1 sequence: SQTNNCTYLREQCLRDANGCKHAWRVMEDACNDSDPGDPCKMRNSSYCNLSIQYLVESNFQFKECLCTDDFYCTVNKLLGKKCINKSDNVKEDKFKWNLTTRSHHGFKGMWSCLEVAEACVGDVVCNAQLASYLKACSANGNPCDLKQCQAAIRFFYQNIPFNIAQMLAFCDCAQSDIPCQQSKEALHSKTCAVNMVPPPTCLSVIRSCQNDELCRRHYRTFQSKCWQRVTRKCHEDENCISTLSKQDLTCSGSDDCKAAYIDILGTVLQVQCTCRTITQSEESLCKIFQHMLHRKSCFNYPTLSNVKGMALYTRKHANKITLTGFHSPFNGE

B1: C-terminally FLAG-tagged NRTN (ligand, UniProt Q99748 96-197, looked up)
chain: ARLGARPCGLRELEVRVSELGLGYASDETVLFRYCAGACEAAARVYDLGLRRLRQRRRLRRERVRAQPCCRPTAYEDEVSFLDAHSRYHTVHELSARECACV
notes: Produced in 293T cells and used as conditioned medium; also called neurturin; not shown: C-terminal FLAG tag
B2: C-terminally FLAG-tagged PSPN (ligand, UniProt O60542 61-156, looked up)
chain: ALSGPCQLWSLTLSVAELGLGYASEEKVIFRYCAGSCPRGARTQHGLALARLQGQGRAHGGPCCRPTRYTDVAFLDDRHRWQRLPQLSAAACGCGG
notes: Produced in 293T cells and used as conditioned medium; not shown: C-terminal FLAG tag
B3: C-terminally FLAG-tagged ARTN (ligand, UniProt Q5T4W7 108-220, looked up)
chain: AGGPGSRARAAGARGCRLRSQLVPVRALGLGHRSDELVRFRFCSGSCRRARSPHDLSLASLLGAGALRPPPGSRPVSQPCCRPTRYEAVSFMDVNSTWRTVDRLSATACGCLG
notes: as for B2

These binders were tested against T1, PRO34128-Fc fusion protein (assay: co-immunoprecipitation with protein-A beads from mixed conditioned media, anti-FLAG western blot).
Procedure: GFR1-Fc, GFR2-Fc, GFR3-Fc, GFR4-Fc and PRO34128-Fc fusion proteins were produced by transfecting appropriate expression constructs using Fugene6™ (Roche Biosciences). C-terminally FLAG-tagged GDNF, NRTN, ARTN, PSPN and LEFTY-B were also produced in 293T cells by transfecting the appropriate expression construct in 293T cells using Fugene6™. All expression constructs are under CMV promoter control. The conditioned media were collected 48 hours post transfection and appropriate Fc fusion proteins (as indicated in the FIG. 6A) were mixed with the ligands and the interacting complexes were immunoprecipitated using protein-A beads (Sigma). Immunoprecipiated proteins were resolved on a SDS-PAGE and detected by western blotting. The co-precipitating FLAG-tagged proteins were detected using an anti-FLAG antibody (Sigma) at a final concentration of 1 μg/ml, HRP-conjugated anti-mouse antibody (ICN Biosciences) and a chemiluminescent substrate (Amersham).

Binding result, no binding:
B1, B2, B3
